Patent publication US10464978B2, “Peptides and combination of peptides for use in immunotherapy against ovarian cancer and other cancers” (immatics biotechnologies GmbH, priority 2015, dated 2019)

target: HLA-A*02:01 (Homo sapiens, UniProt P04439, D140Y/D185E/D98H/E176V/E277Q/G131W/G231S/I119V/I121R/I166T/I218V/L300P/L318F/N151K/N90K/P208A/P217A/Q86G/Q94H/R138H/R169H/T345S); experiment: MHC binding assay: UV-ligand exchange with beta2m ELISA (peptide exchange yield); conditions: binding to HLA-A*02:01
Text: Candidate peptides for T cell based therapies according to the present invention were further tested for their MHC binding capacity (affinity). The individual peptide-MHC complexes were produced by UV-ligand exchange, where a UV-sensitive peptide is cleaved upon UV-irradiation, and exchanged with the peptide of interest as analyzed. Only peptide candidates that can effectively bind and stabilize the peptide-receptive MHC molecules prevent dissociation of the MHC complexes. To determine the yield of the exchange reaction, an ELISA was performed based on the detection of the light chain ([…]) of stabilized MHC complexes. The assay was performed as generally described in Rodenko et al. (Rodenko et al., 2006).
96 well MAXISorp plates (NUNC) were coated over night with 2 ug/ml streptavidin in PBS at room temperature, washed 4× and blocked for 1 h at 37° C. in 2% BSA containing blocking buffer. […] Peptide-MHC monomers of the UV-exchange reaction were diluted 100 fold in blocking buffer. Samples were incubated for 1h at 37° C., washed four times, incubated with 2 ug/ml HRP conjugated anti-β2m for 1h at 37° C., washed again and detected with TMB solution that is stopped with […]. Absorption was measured at 450 nm. Candidate peptides that show a high exchange yield (preferably higher than 50%, most preferred higher than 75%) are generally preferred for a generation and production of antibodies or fragments thereof, and/or T cell receptors or fragments thereof, as they show sufficient avidity to the MHC molecules and prevent dissociation of the MHC complexes.

Peptide exchange (MHC class I binding score, peptide exchange yield)	Substance
“++” (≥20% = ++)	355 (SIQQSIERLLV; listed as Homo sapiens) [compound 355]
“++” (≥20% = ++)	319 (SLEPQIQPV; listed as Homo sapiens) [compound 319]
“+++” (≥50 = +++)	194 (ALPLFVITV; listed as Homo sapiens) [compound 194]
“+++” (≥50 = +++)	351 (SLIPNLRNV; listed as Homo sapiens) [compound 351]
“++” (≥20% = ++)	451 (LLLLDTVTMQV; listed as Homo sapiens) [compound 451]
“+++” (≥50 = +++)	332 (YLISELEAA; listed as Homo sapiens) [compound 332]
“+” (≥10% = +)	520 (LAVHPSGVAL; listed as Homo sapiens) [compound 520]
“+++” (≥50 = +++)	571 (LLLTTIPQI; listed as Homo sapiens) [compound 571]
“+++” (≥50 = +++)	361 (ALYELEGTTV; listed as Homo sapiens) [compound 361]
“+++” (≥50 = +++)	206 (VLQEGKLQKLAQL; listed as Homo sapiens) [compound 206]
“++” (≥20% = ++)	227 (ALMNTLLYL; listed as Homo sapiens) [compound 227]
“+++” (≥50 = +++)	562 (YLEELPEKLKL; listed as Homo sapiens) [compound 562]
“+++” (≥50 = +++)	117 (ILPDGEDFLAV; listed as Homo sapiens) [compound 117]
“++” (≥20% = ++)	146 (SLATAGDGLIEL; listed as Homo sapiens) [compound 146]
“+++” (≥50 = +++)	28 (QLLDETSAITL; listed as Homo sapiens) [compound 28]
“+++” (≥50 = +++)	599 (YLLNDASLISV; listed as Homo sapiens) [compound 599]
“++” (≥20% = ++)	590 (SLIEKLWQT; listed as Homo sapiens) [compound 590]
“+++” (≥50 = +++)	256 (FLPPEHTIVYI; listed as Homo sapiens) [compound 256]
“+++” (≥50 = +++)	614 (LLLPDQPPYHL; listed as Homo sapiens) [compound 614]
“++” (≥20% = ++)	121 (GVVDPRAISVL; listed as Homo sapiens) [compound 121]
“+++” (≥50 = +++)	246 (LLWEVVSQL; listed as Homo sapiens) [compound 246]

Peptide exchange (MHC class I binding score, peptide exchange yield)	Substance
“++” (≥20% = ++)	279 (ALWGGTQPLL; listed as Homo sapiens) [compound 279]
“++” (≥20% = ++)	270 (LLLDEEGTFSL; listed as Homo sapiens) [compound 270]
“++++” (≥75% = ++++)	395 (ALALGGIAVV; listed as Homo sapiens) [compound 395]
“+++” (≥50 = +++)	443 (GLWEIENNPTV; listed as Homo sapiens) [compound 443]
“+++” (≥50 = +++)	284 (ILLSQTTGV; listed as Homo sapiens) [compound 284]
“+++” (≥50 = +++)	496 (FLVEKQPPQV; listed as Homo sapiens) [compound 496]
“+++” (≥50 = +++)	85 (KMSELRVTL; listed as Homo sapiens) [compound 85]
“++” (≥20% = ++)	31 (YLAPELFVNV; listed as Homo sapiens) [compound 31]
“++” (≥20% = ++)	93 (LLQAIKLYL; listed as Homo sapiens) [compound 93]
“++” (≥20% = ++)	265 (LLFGGTKTV; listed as Homo sapiens) [compound 265]
“+++” (≥50 = +++)	617 (ALMYESEKVGV; listed as Homo sapiens) [compound 617]
“+++” (≥50 = +++)	223 (ALLENIALYL; listed as Homo sapiens) [compound 223]
“++++” (≥75% = ++++)	53 (KMIETDILQKV; listed as Homo sapiens) [compound 53]
“+++” (≥50 = +++)	188 (GLFPVTPEAV; listed as Homo sapiens) [compound 188]
“+++” (≥50 = +++)	132 (LLVEQPPLAGV; listed as Homo sapiens) [compound 132]
“++” (≥20% = ++)	232 (ALLEAQDVELYL; listed as Homo sapiens) [compound 232]
“+++” (≥50 = +++)	225 (SLLKVLPAL; listed as Homo sapiens) [compound 225]
“+++” (≥50 = +++)	166 (YLNHLEPPV; listed as Homo sapiens) [compound 166]
“+++” (≥50 = +++)	575 (YLISQVEGHQV; listed as Homo sapiens) [compound 575]
“+++” (≥50 = +++)	71 (GILARIASV; listed as Homo sapiens) [compound 71]
“+++” (≥50 = +++)	241 (SLVEVNPAYSV; listed as Homo sapiens) [compound 241]

Peptide exchange (MHC class I binding score, peptide exchange yield)	Substance
“++++” (≥75% = ++++)	60 (SLTIDGIYYV; listed as Homo sapiens) [compound 60]
“+++” (≥50 = +++)	113 (GLLPTPLFGV; listed as Homo sapiens) [compound 113]
“+++” (≥50 = +++)	514 (ILVDWLVQV; listed as Homo sapiens) [compound 514]
“++++” (≥75% = ++++)	51 (LLPDLEFYV; listed as Homo sapiens) [compound 51]
“+++” (≥50 = +++)	550 (FLYDEIEAEVNL; listed as Homo sapiens) [compound 550]
“+++” (≥50 = +++)	6 (VLVSDGVHSV; listed as Homo sapiens) [compound 6]
“++” (≥20% = ++)	92 (YLIPFTGIVGL; listed as Homo sapiens) [compound 92]
“+++” (≥50 = +++)	362 (TLYGLSVLL; listed as Homo sapiens) [compound 362]
“++++” (≥75% = ++++)	143 (LLLDITPEI; listed as Homo sapiens) [compound 143]
“+++” (≥50 = +++)	97 (SLINGSFLV; listed as Homo sapiens) [compound 97]
“+++” (≥50 = +++)	573 (ILVANAIVGV; listed as Homo sapiens) [compound 573]
“+++” (≥50 = +++)	155 (RVANLHFPSV; listed as Homo sapiens) [compound 155]
“+++” (≥50 = +++)	427 (ALLPLSPYL; listed as Homo sapiens) [compound 427]
“+” (≥10% = +)	116 (YHIDEEVGF; listed as Homo sapiens) [compound 116]
“++” (≥20% = ++)	566 (VIADGGIQNV; listed as Homo sapiens) [compound 566]
“+++” (≥50 = +++)	352 (SLLELLHIYV; listed as Homo sapiens) [compound 352]
“+++” (≥50 = +++)	287 (FLNEFFLNV; listed as Homo sapiens) [compound 287]
“+++” (≥50 = +++)	610 (LLAPTPYIIGV; listed as Homo sapiens) [compound 610]
“+++” (≥50 = +++)	396 (ALLPDLPAL; listed as Homo sapiens) [compound 396]
